Results from paper doi:10.1101/2025.10.22.683813 (bioRxiv, 2025).

Target: the molecule itself
Test: SEC

B1: NC-4 nucleocapsid subunit (other)
chain: MGNARTRRRERRAEKQAQWKAANAGAGAGAMATPHFDYNASVVSKGLANLSLELRKPVSFDIITADTLEQAIERAGTKHGNKGWEAALSAIEMANLYKSLRGTEHHHHLHGSSIEIYEGKLTAEGLRFGIVASRFNHTLVDRLVEGAIDCIVRHGGRGEDITLVRVPGAWEIPVAADELARKEDIDAVIAFGDLIRG
binding result: binds
